Data from IntAct's records for PubMed 39938803.

B1: Retinoblastoma-associated protein (Homo sapiens), P06400 (parent)
chain: MPPKTPRKTAATAAAAAAEPPAPPPPPPPEEDPEQDSGPEDLPLVRLEFEETEEPDFTALCQKLKIPDHVRERAWLTWEKVSSVDGVLGGYIQKKKELWGICIFIAAVDLDEMSFTFTELQKNIEISVHKFFNLLKEIDTSTKVDNAMSRLLKKYDVLFALFSKLERTCELIYLTQPSSSISTEINSALVLKVSWITFLLAKGEVLQMEDDLVISFQLMLCVLDYFIKLSPPMLLKEPYKTAVIPINGSPRTPRRGQNRSARIAKQLENDTRIIEVLCKEHECNIDEVKNVYFKNFIPFMNSLGLVTSNGLPEVENLSKRYEEIYLKNKDLDARLFLDHDKTLQTDSIDSFETQRTPRKSNLDEEVNVIPPHTPVRTVMNTIQQLMMILNSASDQPSENLISYFNNCTVNPKESILKRVKDIGYIFKEKFAKAVGQGCVEIGSQRYKLGVRLYYRVMESMLKSEEERLSIQNFSKLLNDNIFHMSLLACALEVVMATYSRSTSQNLDSGTDLSFPWILNVLNLKAFDFYKVIESFIKAEGNLTREMIKHLERCEHRIMESLAWLSDSPLFDLIKQSKDREGPTDHLESACPLNLPLQNNHTAADMYLSPVRSPKKKGSTTRVNSTANAETQATSAFQTQKPLKSTSLSLFYKKVYRLAYLRLNTLCERLLSEHPELEHIIWTLFQHTLQNEYELMRDRHLDQIMMCSMYGICKVKNIDLKFKIIVTAYKDLPHAVQETFKRVLIKEEEYDSIIVFYNSVFMQRLKTNILQYASTRPPTLSPIPHIPRSPYKFPSSPLRIPGGNIYISPLKSPYKISEGLPTPTKMTPRSRILVSIGESFGTSEKFQKINQMVCNSDRVLKRSAEGSNPPKPLKKLRFDIEGSDEADGSKHLPGESKFQQKLAEMTSTRTRMQKQKMNDSMDTSNKEEK

Columns and labels:
[1] = variants of: B1; settings: with e2f1_human E2F1, Q01094
Chain of e2f1_human E2F1, Q01094 (Q01094 whole entry): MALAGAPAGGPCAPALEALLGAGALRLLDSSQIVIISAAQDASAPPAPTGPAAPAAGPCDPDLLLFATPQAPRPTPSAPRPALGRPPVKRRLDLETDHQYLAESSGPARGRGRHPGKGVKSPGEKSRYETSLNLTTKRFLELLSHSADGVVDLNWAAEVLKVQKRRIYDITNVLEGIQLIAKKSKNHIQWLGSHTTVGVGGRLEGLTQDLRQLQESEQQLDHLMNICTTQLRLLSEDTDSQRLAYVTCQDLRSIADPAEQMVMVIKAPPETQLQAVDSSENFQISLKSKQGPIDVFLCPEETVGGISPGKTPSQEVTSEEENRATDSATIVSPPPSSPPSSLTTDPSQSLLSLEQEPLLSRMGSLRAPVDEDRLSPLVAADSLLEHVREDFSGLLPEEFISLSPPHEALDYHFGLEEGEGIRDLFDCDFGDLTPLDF

[2] = variants of: B1; settings: with ve7_hpv16 E7, P03129
Chain of ve7_hpv16 E7, P03129 (P03129 whole entry): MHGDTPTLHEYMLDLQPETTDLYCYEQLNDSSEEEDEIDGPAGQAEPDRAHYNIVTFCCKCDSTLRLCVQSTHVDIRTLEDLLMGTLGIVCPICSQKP

[3] = variants of: B1; settings: with ve7_hpv16 E7, P03129; remark: listed apart in the source
[4] = variants of: B1; settings: with e2f1_human E2F1, Q01094; remark: listed apart in the source

| Variant | effect of a mutation on the interaction [1] | effect of a mutation on the interaction [2] | effect of a mutation on the interaction [3] | effect of a mutation on the interaction [4] |
| --- | --- | --- | --- | --- |
| L572I | decreasing interaction strength | increasing interaction strength | decreasing interaction strength | – |
| R556Q | decreasing interaction strength | with no effect | decreasing interaction strength | – |
| E533K | disrupting interaction strength | decreasing interaction strength | – | – |
| K548N | disrupting interaction strength | decreasing interaction strength | – | – |
| L550I | decreasing interaction strength | increasing interaction strength | – | – |
| A488V | decreasing interaction strength | decreasing interaction strength | – | – |
| E492Q | decreasing interaction strength | decreasing interaction strength | – | – |
| R451C | decreasing interaction strength | decreasing interaction strength | – | – |
| R451S | decreasing interaction strength | decreasing interaction strength | – | – |
| R451H | decreasing interaction strength | decreasing interaction strength | – | – |
| A525G | decreasing interaction strength | decreasing interaction strength | – | – |
| E440K | increasing interaction strength | with no effect | decreasing interaction strength | decreasing interaction strength |
| S463L | decreasing interaction strength | decreasing interaction strength | – | – |
| E554K | disrupting interaction strength | decreasing interaction strength | – | – |
| Q444L | with no effect | increasing interaction strength | – | decreasing interaction strength |
| Q444R | decreasing interaction strength | decreasing interaction strength | – | – |

| Variant | effect of a mutation on the interaction [1] | effect of a mutation on the interaction [2] | effect of a mutation on the interaction [3] | effect of a mutation on the interaction [4] |
| --- | --- | --- | --- | --- |
| S534R | disrupting interaction strength | increasing interaction strength | decreasing interaction strength | – |
| A490S | decreasing interaction strength | decreasing interaction strength | – | – |
| A490V | decreasing interaction strength | decreasing interaction strength | – | – |
| A490T | decreasing interaction strength | decreasing interaction strength | – | disrupting interaction strength |
| K462E | decreasing interaction strength | decreasing interaction strength | – | – |
| K462T | decreasing interaction strength | decreasing interaction strength | – | – |
| E539D | decreasing interaction strength | decreasing interaction strength | – | disrupting interaction strength |
| S443L | decreasing interaction strength | decreasing interaction strength | – | – |
| M546I | increasing interaction strength | decreasing interaction strength | – | – |
| Q504E | decreasing interaction strength | with no effect | decreasing interaction strength | – |
| H555Y | disrupting interaction strength | decreasing interaction strength | – | – |
| S474N | decreasing interaction strength | decreasing interaction strength | – | – |
| S474I | disrupting interaction strength | decreasing interaction strength | – | – |
| S474R | disrupting interaction strength | with no effect | decreasing interaction strength | – |
| K530I | disrupting interaction strength | decreasing interaction strength | – | – |
